From patent publication US20140206846A1 come the findings set out here.

The target in assay [1] is T1, human VEGF (human), P15692.
T1 chain: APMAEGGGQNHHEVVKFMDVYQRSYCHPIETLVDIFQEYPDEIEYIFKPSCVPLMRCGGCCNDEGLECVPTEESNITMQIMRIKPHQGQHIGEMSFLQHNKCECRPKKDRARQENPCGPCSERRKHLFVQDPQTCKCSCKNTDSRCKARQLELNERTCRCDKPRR
In words: Biacore. The conditions noted are these: bispecific antibody; chains VL:VH; remark: other sources report otherwise. (SPR reads the build-up and loss of mass on a sensor chip optically.)

In assay [2] the target is T1, human VEGF (human), P15692. As to the kind of experiment: Biacore SPR, Fab captured by anti-light chain antibody, VEGF as analyte. The conditions noted are these: remark: other sources report otherwise.

B1: VH6L (bispecific antibody, V domains shown)
chain 1: NIQKTQSPSSLSASVGDRVTITCRALWHISSYLAWYQQKPGKAPKLLIYAASHLHYGVPSRFSGSGSGTDFTLTISSLQPEDFATYYCQQYSGLPYTFGQGTKVEIK
chain 2: YYQLVESGGGLVQPGGSLRLSCAADGFLFSGYAMSWIRQAPGKGLEWIGQISGSGGSTVYNYNVLGRFTISRDNSKNTLYLQMNSLRAEDTAVYYCARDTGYFDHWGQGTLVTVSS
One may read the koff as the rate constant with which the complex falls apart. Usually Kd stands for the equilibrium constant for the complex coming apart. Lower therefore signals higher affinity. B1 registered a koff in assay [1] of 0.000738 s⁻¹. This molecule returned a Kd in assay [2] of 7.8 nM.
